{
  "source": "patent US20220403041A1",
  "about": "(Sanofi, published 2022)",
  "binders": {"B1": {"name": "E3.2/TB19 (bispecific antibody, part only; not given: E3.2 arm; constant regions, V domains shown, part only)", "VH": "QEQLQESGPGLVKPSETLSLTCTVSGGSIRNNYYNWIRQPAGKGLEWIGRIYISGTTNSNPSLKSRVTMSIDTSKNQFSLKLSSVTAADTAIYYCAREHYVSGTSLDNWGQGTLVTVSS", "VL": "EIVMTQSPTTLSLSPGERATLSCRASQSVNTNYFSWYQQKPGLTPRLLIYGTSTRATGIPARFSGSGSGTDFTLTISSLQPEDFGIYYCQQDYNLPYTFGQGTYLEIK"}, "B2": {"name": "TB19/C16 (bispecific antibody, part only; not given: C16 arm, part only)", "TB19 arm heavy chain": "B1 VH", "TB19 arm light chain": "EIVMTQSPTTLSLSPGERATLSCRASQSVNTNYFSWYQQKPGLTPRLLIYGTSTRATGIPARFSGSGSGTDFTLTISSLQPEDFGIYYCQQDYNLPYTFGQGTYLEIKRTVAAPSVFIFPPSDEQLKSGTASVVCLLNNFYPREAKVQWKVDNALQSGNSQESVTEQDSKDSTYSLSSTLTLSKADYEKHKVYACEVTHQGLSSPVTKSFNRGEC"}, "B3": {"name": "TB19/TA9 (bispecific antibody, part only; not given: TA9 arm, part only)", "TB19 arm heavy chain": "B1 VH", "TB19 arm light chain": "B2 TB19 arm light chain"}, "B4": {"name": "TB19/TA10 (bispecific antibody, part only; not given: TA10 arm, part only)", "TB19 arm heavy chain": "B1 VH", "TB19 arm light chain": "B2 TB19 arm light chain"}},
  "key": {"soluble CD73 dimer [1]": {"molecular_target": "T1, soluble CD73 dimer (human, UniProt P21589 27-549, limits assumed)", "T1 construct": "CD73 in the flow (SPR) or in solution (BLI binning); also called soluble human CD73", "T1 sequence": "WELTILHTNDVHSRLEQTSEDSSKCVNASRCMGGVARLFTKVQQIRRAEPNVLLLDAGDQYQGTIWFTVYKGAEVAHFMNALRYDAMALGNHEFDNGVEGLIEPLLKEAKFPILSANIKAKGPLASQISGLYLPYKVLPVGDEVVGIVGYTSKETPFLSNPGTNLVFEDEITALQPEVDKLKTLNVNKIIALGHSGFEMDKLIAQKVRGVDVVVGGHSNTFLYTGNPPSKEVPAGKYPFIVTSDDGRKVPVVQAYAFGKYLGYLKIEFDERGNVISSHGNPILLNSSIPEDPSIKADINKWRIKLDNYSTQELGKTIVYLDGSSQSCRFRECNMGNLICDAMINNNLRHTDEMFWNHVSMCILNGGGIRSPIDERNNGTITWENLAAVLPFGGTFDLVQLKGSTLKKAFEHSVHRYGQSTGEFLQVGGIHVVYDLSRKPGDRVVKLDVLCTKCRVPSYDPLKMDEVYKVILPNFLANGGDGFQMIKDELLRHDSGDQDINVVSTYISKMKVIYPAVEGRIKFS", "test": "SPR, antibody captured on Protein A chip, CD73 in flow; biphasic fit, component of abundance 57%"}, "soluble CD73 dimer [2]": {"molecular_target": "T1, soluble CD73 dimer", "test": "SPR, antibody captured on Protein A chip, CD73 in flow; biphasic fit, component of abundance 9%"}, "soluble CD73 dimer [3]": {"molecular_target": "T1, soluble CD73 dimer", "test": "SPR, antibody captured on Protein A chip, CD73 in flow; Langmuir ka with major component kd"}, "soluble CD73 dimer [4]": {"molecular_target": "T1, soluble CD73 dimer", "test": "SPR, antibody captured on Protein A chip, CD73 in flow; biphasic fit, component of abundance 43%"}, "soluble CD73 dimer [5]": {"molecular_target": "T1, soluble CD73 dimer", "test": "SPR, antibody captured on chip, CD73 in flow; biphasic fit, share after 300 s binding phase of the component with ka 1.58E+05 1/Ms"}, "soluble CD73 dimer [6]": {"molecular_target": "T1, soluble CD73 dimer", "test": "SPR dissociation kinetics"}, "soluble CD73 dimer [7]": {"molecular_target": "T1, soluble CD73 dimer", "test": "SPR, antibody captured on Protein A chip, CD73 in flow; Langmuir 1:1 fit"}, "[8]": {"molecular_target": "T2, human CD73 on COR-L23 lung carcinoma cells (human) (UniProt P21589)", "T2 sequence": "T1 sequence", "test": "cell-based or functional assay"}, "soluble CD73 dimer [9]": {"molecular_target": "T1, soluble CD73 dimer", "test": "SPR, antibody captured on chip, CD73 in flow; biphasic fit, share after 300 s binding phase of the component with ka 8.50E+05 1/Ms"}, "soluble CD73 dimer [10]": {"molecular_target": "T1, soluble CD73 dimer", "test": "SPR, antibody captured on chip, CD73 in flow; biphasic fit, share by T0 intercept of the component with kd 4.06E-03 1/s"}, "[11]": {"molecular_target": "T2, human CD73 on COR-L23 lung carcinoma cells (human)"}, "soluble CD73 dimer [12]": {"molecular_target": "T1, soluble CD73 dimer", "test": "SPR, antibody captured on chip, CD73 in flow; biphasic fit, share by T0 intercept of the component with kd 1.28E-04 1/s"}, "soluble CD73 dimer [13]": {"molecular_target": "T1, soluble CD73 dimer", "test": "SPR, antibody captured on Protein A chip, CD73 in flow; biphasic fit, component of abundance 91%"}},
  "data": [
    {"binder": "B1", "values": [
      {"measurement": "kon", "setting": "soluble CD73 dimer [1]", "value": 158000, "unit": "M⁻¹ s⁻¹"},
      {"measurement": "koff", "setting": "soluble CD73 dimer [2]", "value": 0.00406, "unit": "s⁻¹"},
      {"measurement": "Kd", "setting": "soluble CD73 dimer [3]", "value": 0.352, "unit": "nM"},
      {"measurement": "kon", "setting": "soluble CD73 dimer [4]", "value": 850000, "unit": "M⁻¹ s⁻¹"},
      {"measurement": "abundance of association component (biphasic fit)", "setting": "soluble CD73 dimer [5]", "value": 57, "unit": "%"},
      {"measurement": "fold more stable (kd of the principal component) than with either monovalent parental", "setting": "soluble CD73 dimer [6]", "value": 5.4, "unit": "fold"},
      {"measurement": "koff", "setting": "soluble CD73 dimer [7]", "value": 0.000164, "unit": "s⁻¹"},
      {"measurement": "kon", "setting": "soluble CD73 dimer [7]", "value": 364000, "unit": "M⁻¹ s⁻¹"},
      {"measurement": "EC50 (nM) of inhibition of CD73 activity (adenosine by LC/MS)", "setting": "[8]", "value": 0.443, "unit": "nM"},
      {"measurement": "Max Inhib. (projected maximal inhibition at saturating antibody)", "setting": "[8]", "value": 97, "unit": "%"},
      {"measurement": "inhibition of CD73 enzymatic activity on COR-L23 cells at 1 µg/mL", "setting": "[8]", "value": "> 95", "unit": "%"},
      {"measurement": "abundance of association component (biphasic fit)", "setting": "soluble CD73 dimer [9]", "value": 43, "unit": "%"},
      {"measurement": "abundance of dissociation component (biphasic fit)", "setting": "soluble CD73 dimer [10]", "value": 9, "unit": "%"},
      {"measurement": "% inhibition of CD73 activity at 1 µg/ml antibody (COR-L23 cells, 4 h, LC/MS); cell E3.2 x TB19", "setting": "[11]", "value": 95, "unit": "%"},
      {"measurement": "abundance of dissociation component (biphasic fit)", "setting": "soluble CD73 dimer [12]", "value": 91, "unit": "%"},
      {"measurement": "koff", "setting": "soluble CD73 dimer [13]", "value": 0.000128, "unit": "s⁻¹"}
    ]},
    {"binder": "B2", "values": [
      {"measurement": "% inhibition of CD73 activity at 1 µg/ml antibody (COR-L23 cells, 4 h, LC/MS); cell TB19 x C16", "setting": "[11]", "value": 85, "unit": "%"}
    ]},
    {"binder": "B3", "values": [
      {"measurement": "% inhibition of CD73 activity at 1 µg/ml antibody (COR-L23 cells, 4 h, LC/MS); cell TB19 x TA9", "setting": "[11]", "value": 70, "unit": "%"}
    ]},
    {"binder": "B4", "values": [
      {"measurement": "% inhibition of CD73 activity at 1 µg/ml antibody (COR-L23 cells, 4 h, LC/MS); cell TB19 x TA10", "setting": "[11]", "value": 80, "unit": "%"}
    ]}
  ]
}
